Measured values reported in PMC3472128 (Structure (London, England : 1993), 2012).
Residue numbers refer to the chain shown, from its start. Names may count otherwise. “And” between values parts separate entries of the source, which are not always exact repeats. Equal entries are not always repeated. Where two headings read alike, the source gives them in different places.

Experiments:
[1] = molecular target: T1, Smad7 PY peptide Ac-ELESPPPPYSRYPMD-NH2 (203-217) (human); test: ITC
T1 peptide: Ac-ELESPPPPYSRYPMD-NH2

[2] = molecular target: T1, Smad7 PY peptide Ac-ELESPPPPYSRYPMD-NH2 …; test: ITC
[3] = molecular target: T1, Smad7 PY peptide Ac-ELESPPPPYSRYPMD-NH2 …; test: ITC
[4] = molecular target: T1, Smad7 PY peptide Ac-ELESPPPPYSRYPMD-NH2 …; test: ITC
[5] = molecular target: the molecule itself; test: native MS
[6] = molecular target: the molecule itself; test: NMR

B1: Nedd4L WW1 domain (domain or fragment)
chain: not shown
[1]
  stoichiometry N: 1

B2: Smurf1 WW2 domain (residues 277-314) (domain or fragment, human, UniProt Q9HCE7-2 277-314, looked up)
chain: DELGPLPPGWEVRSTVSGRIYFVDHNNRTTQFTDPRLH
[1]
  Kd: 4.1 ± 0.6 µM
  stoichiometry N: 1

B3: Smurf1 WW2 domain Arg295Glu (domain or fragment, human, UniProt Q9HCE7-2 277-314, looked up)
chain: B2 chain with R19E
[2]
  Kd: 48.6 ± 6.4 µM

B4: Smurf1 WW1-WW2 pair (domain or fragment)
chain: SPELPEGYEQRTTVQGQVYFLHTQTGVSTWHDPRIPRDLNSVNCDELGPLPPGWEVRSTVSGRIYFVDHNNRTTQFTDPRLH
[3]
  Kd: 0.7 ± 0.3 µM
[4]
  Kd: 5 ± 0.3 µM
[1]
  Kd: 1.7 ± 0.3 µM
  stoichiometry N: 0.7

B5: Smurf2 WW3 domain (297-333) (domain or fragment)
chain: not shown
[1]
  Kd: 4.1 µM
  stoichiometry N: 1

B6: Smurf2 WW3 domain R312E (domain or fragment, human, UniProt Q9HAU4 297-333, looked up)
chain: GPLPPGWEIRNTATGEVYFVDHNNRTTQFTDPRLSAN
[2]
  Kd: 34.2 ± 1.6 µM

B7: Smurf2 WW2-WW3 pair (domain or fragment)
chain: PPDLPEGYEQRTTQQGQVYFLHTQTGVSTWHDPRVPRDLSNINCEELGPLPPGWEIRNTATGRVYFVDHNNRTTQFTDPRLSAN
[3]
  Kd: 0.7 ± 0.3 µM
[5]
  stoichiometry N: 2 and 3
[4]
  Kd: 5 ± 0.3 µM
[1]
  Kd: 1.7 ± 0.3 µM

B8: Nedd4L WW2 domain (364-403) (domain or fragment)
chain: not shown
[1]
  stoichiometry N: 1

B9: Nedd4L WW2 domain Arg380Glu (domain or fragment)
chain: not shown
[2]
  Kd: 15.4 ± 3.5 µM

B10: Nedd4L WW2 domain Lys378/Arg380 to Glu (domain or fragment)
chain: not shown
[2]
  Kd: 27.3 ± 2.2 µM

B11: Nedd4L WW2 domain Lys378Glu (domain or fragment)
chain: not shown
[2]
  Kd: 23.5 ± 1.5 µM

B12: Smurf1 WW1-WW2 pair Arg243Ala (domain or fragment)
chain: B4 chain with R11A
[2]
  fold reduction of affinity against the wild-type WW1-WW2 pair: 3 fold

B13: Smurf1 WW1-WW2 pair Gln249Glu (domain or fragment)
chain: B4 chain with Q17E
[2]
  fold reduction of affinity against the wild-type WW1-WW2 pair: 3 fold

B14: Smurf1 WW1-WW2 pair Gln247 and Gln249 to Glu (domain or fragment)
chain: B4 chain with Q15E, Q17E
[2]
  fold reduction of affinity against the wild-type WW1-WW2 pair: 3 fold

B15: Smurf1 WW1-WW2 pair Arg243Glu (domain or fragment)
chain: B4 chain with R11E
[2]
  fold reduction of affinity against the wild-type WW1-WW2 pair: 10 fold

B16: YAP WW1 domain (residues 163-206) (domain or fragment, human, UniProt P46937 163-206, looked up)
chain: SSFEIPDDVPLPAGWEMAKTSSGQRYFLNHIDQTTTWQDPRKAM
[1]
  Kd: 6.9 ± 0.28 µM

B17: YAP WW1 domain Q186E (domain or fragment, human, UniProt P46937 163-206, looked up)
chain: B16 chain with Q24E
[2]
  fold reduction of affinity against wild-type YAP WW1: 2 fold

B18: YAP WW2 domain (residues 227-266) (domain or fragment, human, UniProt P46937 227-266, looked up)
chain: SASGPLPDGWEQAMTQDGEIYYINHKNKTTSWLDPRLDPR
[1]
  fold weaker dissociation constant than YAP WW1: 9 fold

B19: YAP WW2 domain Asp243 and Glu245 to Glutamine (domain or fragment, human, UniProt P46937 227-266, looked up)
chain: B18 chain with D17Q, E19Q
[2]
  fold improvement of affinity against wild-type YAP WW2: 2 fold

B20: Nedd4L WW3 domain (domain or fragment)
chain: SFLPPGWEMRIAPNGRPFFIDHNTKTTTWEDPRL
[1]
  stoichiometry N: 1

B21: YAP WW1-WW2 pair (domain or fragment)
chain: SSFEIPDDVPLPAGWEMAKTSSGQRYFLNHIDQTTTWQDPRKAMLSQMNVTAPTSPPVQQNMMNSASGPLPDGWEQAMTQDGEIYYINHKNKTTSWLDPRLDPR
[1]
  Kd: 9.8 ± 0.9 µM
  stoichiometry N: 1

B22: Nedd4L WW4 domain (domain or fragment)
chain: GPLPPGWEERIHLDGRTFYIDHNSKITQWEDPRL
[1]
  stoichiometry N: 1

B23: Smurf1 WW1 domain (residues 233-270) (domain or fragment, human, UniProt Q9HCE7-2 233-270, looked up)
chain: SPELPEGYEQRTTVQGQVYFLHTQTGVSTWHDPRIPRD
[6]
  stoichiometry N: 2

B24: Nedd4L WW1-WW2 pair (domain or fragment)
chain: not shown
[1]
  stoichiometry N: 1

B25: Nedd4L WW3-WW4 pair (domain or fragment)
chain: SFLPPGWEMRIAPNGRPFFIDHNTKTTTWEDPRLKFPVHMRSKTSLNPNDLGPLPPGWEERIHLDGRTFYIDHNSKITQWEDPRL
[1]
  stoichiometry N: 1

B26: Nedd4L WW2-WW3 pair (domain or fragment)
chain: TPGLPSGWEERKDAKGRTYYVNHNNRTTTWTRPIMQLAEDGASGSATNSNNHLIEPQIRRPRSLSSPTVTLSAPLEGAKDSPVRRAVKDTLSNPQSPQPSPYNSPKPQHKVTQSFLPPGWEMRIAPNGRPFFIDHNTKTTTWEDPRL
[1]
  stoichiometry N: 2 equivalents of peptide per protein
